According to US20100119506A1 (published 2010):

How the values were obtained:
Human PAR-2 on cells [1] = molecular target: T1, Human PAR-2 on cells (human, UniProt P55085 26-397); test: binding of Fab to PAR-2 transfected HEK cells (HEK-PAR-2 #3)
T1 construct: also called HEK-PAR-2 (#3); human PAR-2 transfected HEK293 cells
T1 sequence: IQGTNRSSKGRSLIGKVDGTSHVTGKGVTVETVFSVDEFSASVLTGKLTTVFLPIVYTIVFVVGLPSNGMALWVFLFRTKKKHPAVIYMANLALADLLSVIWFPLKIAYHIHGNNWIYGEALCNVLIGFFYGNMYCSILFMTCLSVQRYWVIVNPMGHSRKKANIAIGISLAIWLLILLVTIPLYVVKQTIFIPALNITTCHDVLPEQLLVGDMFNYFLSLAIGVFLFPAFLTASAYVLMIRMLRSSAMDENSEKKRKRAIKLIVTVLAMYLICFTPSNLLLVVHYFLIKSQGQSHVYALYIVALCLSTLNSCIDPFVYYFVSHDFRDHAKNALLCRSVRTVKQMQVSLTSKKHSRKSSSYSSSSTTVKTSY

Human PAR-2 on cells [2] = molecular target: T1, Human PAR-2 on cells; test: cell binding, Fab against IgG4p of the same clone
Human PAR-2 on cells [3] = molecular target: T1, Human PAR-2 on cells; test: cell binding of IgG4_Pro, HEK-PAR-2 (#3)
Human PAR-2 on cells [4] = molecular target: T1, Human PAR-2 on cells; test: binding of IgG4p to PAR-2 transfected HEK cells (HEK-PAR-2 #3)
[5] = molecular target: T2, PAR-1 peptide (SEQ ID NO:43); test: ELISA on peptide
T2 peptide: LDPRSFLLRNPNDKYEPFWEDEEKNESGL

[6] = molecular target: T3, PAR-4 peptide (SEQ ID NO:44); test: ELISA on peptide
T3 peptide: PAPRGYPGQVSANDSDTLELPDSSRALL

[7] = molecular target: T4, PAR-2 peptide (SEQ ID NO:42) coupled to Transferrin as carrier (coupled to Transferrin as carrier); test: ELISA on peptide
T4 construct: Transferrin carrier not further described
T4 peptide: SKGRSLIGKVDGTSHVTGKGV

[8] = molecular target: T5, FLAG-tagged PAR-2 over-expressed on HEK transfectants (Homo sapiens (Human), UniProt P55085 37-397); test: cell-based or functional assay
T5 sequence: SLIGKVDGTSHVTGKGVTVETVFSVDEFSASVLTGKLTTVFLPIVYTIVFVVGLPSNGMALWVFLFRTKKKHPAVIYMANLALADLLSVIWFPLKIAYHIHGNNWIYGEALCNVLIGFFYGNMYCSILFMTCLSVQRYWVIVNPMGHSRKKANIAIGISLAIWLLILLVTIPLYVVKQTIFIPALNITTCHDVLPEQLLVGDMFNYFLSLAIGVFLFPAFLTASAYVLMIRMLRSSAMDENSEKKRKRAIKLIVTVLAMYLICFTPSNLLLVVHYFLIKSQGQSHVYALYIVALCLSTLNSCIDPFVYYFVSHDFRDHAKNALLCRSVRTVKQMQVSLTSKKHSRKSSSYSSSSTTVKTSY

Human PAR-2 on cells [9] = molecular target: T1, Human PAR-2 on cells; test: cell-based or functional assay
[10] = molecular target: labeled peptide representing the N-terminus of PAR-2 (FRET assay); test: cell-based or functional assay
[11] = molecular target: T6, Human PAR-2 peptide (SEQ ID NO:1, Residues 33-54) (human); test: Kinexa, peptide in solution
T6 peptide: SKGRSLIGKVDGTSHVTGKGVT
Method: (§1) Binding to peptide in solution was determined by Kinexa technology.

Murine PAR-2 peptide [12] = molecular target: T7, Murine PAR-2 peptide (murine); test: Kinexa, peptide in solution
T7 construct: also called mouse PAR-2 peptide
T7 peptide: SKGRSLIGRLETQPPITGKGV
Method: as §1

Murine PAR-2 peptide [13] = molecular target: T7, Murine PAR-2 peptide; test: Mouse PAR-2 Peptide Binding (Kinexa)
Method: as §1

Cynomolgus PAR-2 peptide = molecular target: T8, Cynomolgus PAR-2 peptide (cynomolgus); test: Kinexa, peptide in solution
T8 peptide: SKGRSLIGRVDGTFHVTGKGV
Method: as §1

Rat PAR-2 peptide [14] = molecular target: T9, Rat PAR-2 peptide (rat); test: Kinexa, peptide in solution
T9 peptide: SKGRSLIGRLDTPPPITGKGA
Method: as §1

Rat PAR-2 peptide [15] = molecular target: T9, Rat PAR-2 peptide; test: Rat PAR-2 Peptide Binding (Kinexa)
Method: as §1

B1: Ab4994 Fab (Fab, V domains shown)
VH: QVELVESGGGLVQPGGSLRLSCAASGFTFSSYAMNWVRQAPGKGLEWVSAISYSGHLTGYADSVKGRFTISRDNSKNTLYLQMNSLRAEDTAVYYCARIQNDPMDVWGQGTLVTVSS
VL: DIELTQPPSVSVAPGQTARISCSGDNLGKKYVQWYQQKPGQAPVLVIYDDSNRPSGIPERFSGSNSGNTATLTISGTQAEDEADYYCSSWDVGSDGWVFGGGTKLTVLG
notes: Fab
- EC50 (Human PAR-2 on cells [1]): 1.9 nM
- Ratio of EC50 Fab / EC50 IgG (Human PAR-2 on cells [2]): 4.8

B2: Ab4999 IgG4_Pro (antibody, V domains shown)
VH: QVQLVESGGGLVQPGGSLRLSCAASGFTFSSYAMNWVRQAPGKGLEWVSTISYSSSATSYADSVKGRFTISRDNSKNTLYLQMNSLRAEDTAVYYCARIQNDPMDVWGQGTLVTVSS
VL: DIELTQPPSVSVAPGQTARISCSGDNLGKKYVQWYQQKPGQAPVLVIYDDSNRPSGIPERFSGSNSGNTATLTISGTQAEDEADYYCQTWDYSSIRDETNVFGGGTKLTVLG
notes: IgG4_Pro (human IgG4 constant regions, Ser241Pro hinge), lambda; also called IgG4p Ab4999
- EC50 (Human PAR-2 on cells [3]): 0.2 nM
- EC50 (Human PAR-2 on cells [4]): 0.2 nM
- binding result [5]: no binding
- binding result [6]: no binding
- binding result [7]: binds
- FLAG Cell-Based Cleavage Approx. IC50 [8]: < 1 nM
- FLIPR A549 cells IC50 (Human PAR-2 on cells [9]): 3.1 nM
- FRET Peptide Cleavage IC50 [10]: < 30 nM

B3: Ab4997 Fab (Fab, V domains shown)
VH: QVELVESGGGLVQPGGSLRLSCAASGFTFSSYAMNWVRQAPGKGLEWVSAISYNGKLKGYADSVKGRFTISRDNSKNTLYLQMNSLRAEDTAVYYCARIQNDPMDVWGQGTLVTVSS
VL: DIELTQPPSVSVAPGQTARISCSGDNLGKKYVQWYQQKPGQAPVLVIYDDSNRPSGIPERFSGSNSGNTATLTISGTQAEDEADYYCSSWDVGSDGWVFGGGTKLTVLG
notes: Fab
- EC50 (Human PAR-2 on cells [1]): 3.03 nM
- Ratio of EC50 Fab / EC50 IgG (Human PAR-2 on cells [2]): 8

B4: Ab5003 Fab (Fab, V domains shown)
VH: QVELVESGGGLVQPGGSLRLSCAASGFTFSSYAMNWVRQAPGKGLEWVSAISYKGHLTGYADSVKGRFTISRDNSKNTLYLQMNSLRAEDTAVYYCARIQNDPMDVWGQGTLVTVSS
VL: DIELTQPPSVSVAPGQTARISCSGDNLGKKYVQWYQQKPGQAPVLVIYDDSNRPSGIPERFSGSNSGNTATLTISGTQAEDEADYYCSSWDVGSDGWVFGGGTKLTVLG
notes: Fab
- EC50 (Human PAR-2 on cells [1]): 7.03 nM
- Ratio of EC50 Fab / EC50 IgG (Human PAR-2 on cells [2]): 15.3

B5: Ab5006 Fab (Fab, V domains shown)
VH: QVELVESGGGLVQPGGSLRLSCAASGFTFSSYAMNWVRQAPGKGLEWVGAISFDGMLTGYADSVKGRFTISRDNSKNTLYLQMNSLRAEDTAVYYCARIQNDPMDVWGQGTLVTVSS
VL: DIELTQPPSVSVAPGQTARISCSGDNLGKKYVQWYQQKPGQAPVLVIYDDSNRPSGIPERFSGSNSGNTATLTISGTQAEDEADYYCSSWDVGSDGWVFGGGTKLTVLG
notes: Fab
- EC50 (Human PAR-2 on cells [1]): 11.9 nM

B6: Ab5007 Fab (Fab, V domains shown)
VH: QVELVESGGGLVQPGGSLRLSCAASGFTFSSYAMNWVRQAPGKGLEWVSAISFSGHLTGYADSVKGRFTISRDNSKNTLYLQMNSLRAEDTAVYYCARIQNDPMDVWGQGTLVTVSS
VL: DIELTQPPSVSVAPGQTARISCSGDNLGKKYVQWYQQKPGQAPVLVIYDDSNRPSGIPERFSGSNSGNTATLTISGTQAEDEADYYCSSWDVGSDGWVFGGGTKLTVLG
notes: Fab
- EC50 (Human PAR-2 on cells [1]): 9.66 nM
- Ratio of EC50 Fab / EC50 IgG (Human PAR-2 on cells [2]): 19.3

B7: Antibody Par-C (antibody, V domains shown)
VH: QVELVESGGGLVQPGGSLRLSCAASGFTFSSYAMNWVRQAPGKGLEWVSAISFSGHLTGYADSVKGRFTISRDNSKNTLYLQMNSLRAEDTAVYYCARIQNDPMDVWGQGTLVTVSS
VL: DIELTQPPSVSVAPGQTARISCSGDNLGKKYVQWYQQKPGQAPVLVIYDDSNRPSGIPERFSGSNSGNTATLTISGTQAEDEADYYCQTWDYSSIRDETNVFGGGTKLTVLG
notes: Codon-optimized version of Ab5151
- Kd [11]: 0.03 nM
- Kd (Murine PAR-2 peptide [12]): 0.03 nM

B8: Ab4999 Fab (Fab, V domains shown)
VH: QVELVESGGGLVQPGGSLRLSCAASGFTFSSYAMNWVRQAPGKGLEWVSTISYSSSATSYADSVKGRFTISRDNSKNTLYLQMNSLRAEDTAVYYCARIQNDPMDVWGQGTLVTVSS
VL: DIELTQPPSVSVAPGQTARISCSGDNLGKKYVQWYQQKPGQAPVLVIYDDSNRPSGIPERFSGSNSGNTATLTISGTQAEDEADYYCQTWDYSSIRDETNVFGGGTKLTVLG
notes: Fab
- EC50 (Human PAR-2 on cells [1]): 0.06 nM
- Ratio of EC50 Fab / EC50 IgG (Human PAR-2 on cells [2]): 0.3

B9: Ab5151 IgG4_Pro (cross-cloned: light chain of Ab4999 with heavy chain of Ab5007) (antibody, V domains shown)
VH: QVQLVESGGGLVQPGGSLRLSCAASGFTFSSYAMNWVRQAPGKGLEWVSAISFSGHLTGYADSVKGRFTISRDNSKNTLYLQMNSLRAEDTAVYYCARIQNDPMDVWGQGTLVTVSS
VL: DIELTQPPSVSVAPGQTARISCSGDNLGKKYVQWYQQKPGQAPVLVIYDDSNRPSGIPERFSGSNSGNTATLTISGTQAEDEADYYCQTWDYSSIRDETNVFGGGTKLTVLG
notes: IgG4_Pro format
- EC50 (Human PAR-2 on cells [3]): 0.4 nM
- binding result [5]: no binding
- binding result [6]: no binding
- binding result [7]: binds
- FLAG Cell-Based Cleavage Approx. IC50 [8]: < 1 nM
- FLIPR A549 cells IC50 (Human PAR-2 on cells [9]): 4 nM
- FRET Peptide Cleavage IC50 [10]: < 30 nM

B10: Ab4996 IgG4_Pro (antibody, V domains shown)
VH: QVQLVESGGGLVQPGGSLRLSCAASGFTFSNHAMHWVRQAPGKGLEWVSAISHPGKFTYYADSVKGRFTISRDNSKNTLYLQMNSLRAEDTAVYYCARHGDGMDYFDFWGQGTLVTVSS
VL: DIELTQPPSVSVAPGQTARISCSGDNIGTKYVYWYQQKPGQAPVLVIYDDNNRPSGIPERFSGSNSGNTATLTISGTQAEDEADYYCQSYDSQTMVFGGGTKLTVLG
notes: IgG4_Pro (human IgG4 constant regions, Ser241Pro hinge), lambda; also called IgG4p Ab4996
- binding result [6]: no binding
- binding result [7]: binds
- FRET Peptide Cleavage IC50 [10]: < 30 nM

B11: Antibody Par-D (antibody, V domains shown)
VH: QVELVESGGGLVQPGGSLRLSCAASGFTFSNHAMHWVRQAPGKGLEWVSAISHPGKFTYYADSVKGRFTISRDNSKNTLYLQMNSLRAEDTAVYYCARHGDGMDYFDFWGQGTLVTVSS
VL: DIELTQPPSVSVAPGQTARISCSGDNIGTKYVYWYQQKPGQAPVLVIYDDNNRPSGIPERFSGSNSGNTATLTISGTQAEDEADYYCQSYDSQTMVFGGGTKLTVLG
notes: Codon-optimized version of Ab4996
- Kd (Murine PAR-2 peptide [13]): 0.42 nM
- Kd (Cynomolgus PAR-2 peptide): 0.14 nM
- Kd (Rat PAR-2 peptide [14]): 0.04 nM
- Kd (Murine PAR-2 peptide [12]): 0.42 nM
- Kd (Rat PAR-2 peptide [15]): 0.04 nM
